# In IntAct's records for PubMed 35512704:
# B1: Speckle-type POZ protein (Homo sapiens), O43791 (parent)
# chain: MSRVPSPPPPAEMSSGPVAESWCYTQIKVVKFSYMWTINNFSFCREEMGEVIKSSTFSSGANDKLKWCLRVNPKGLDEESKDYLSLYLLLVSCPKSEVRAKFKFSILNAKGEETKAMESQRAYRFVQGKDWGFKKFIRRDFLLDEANGLLPDDKLTLFCEVSVVQDSVNISGQNTMNMVKVPECRLADELGGLWENSRFTDCCLCVAGQEFQAHKAILAARSPVFSAMFEHEMEESKKNRVEINDVEPEVFKEMMCFIYTGKAPNLDKMADDLLAAADKYALERLKVMCEDALCSNLSVENAAEILILADLHSADQLKTQAVDFINYHASDVLETSGWKSMVVSHPHLVAEAYRSLASAQCPFLGPPRKRLKQS
# Variants of: B1
# Conditions: with nox1_human NOX1, Q9Y5S8
row,Variant,effect of a mutation on the interaction
1,Y87C,with no effect

# Variants of: B1
# Conditions: with ntrk2_human NTRK2, Q16620
row,Variant,effect of a mutation on the interaction
1,Y87C,with no effect

# Variants of: B1
# Conditions: with ntrk3_human NTRK3, Q16288
row,Variant,effect of a mutation on the interaction
1,Y87C,with no effect

# Variants of: B1
# Conditions: with pak3_human PAK3, O75914
# Chain of pak3_human PAK3, O75914 (O75914 whole entry, looked up): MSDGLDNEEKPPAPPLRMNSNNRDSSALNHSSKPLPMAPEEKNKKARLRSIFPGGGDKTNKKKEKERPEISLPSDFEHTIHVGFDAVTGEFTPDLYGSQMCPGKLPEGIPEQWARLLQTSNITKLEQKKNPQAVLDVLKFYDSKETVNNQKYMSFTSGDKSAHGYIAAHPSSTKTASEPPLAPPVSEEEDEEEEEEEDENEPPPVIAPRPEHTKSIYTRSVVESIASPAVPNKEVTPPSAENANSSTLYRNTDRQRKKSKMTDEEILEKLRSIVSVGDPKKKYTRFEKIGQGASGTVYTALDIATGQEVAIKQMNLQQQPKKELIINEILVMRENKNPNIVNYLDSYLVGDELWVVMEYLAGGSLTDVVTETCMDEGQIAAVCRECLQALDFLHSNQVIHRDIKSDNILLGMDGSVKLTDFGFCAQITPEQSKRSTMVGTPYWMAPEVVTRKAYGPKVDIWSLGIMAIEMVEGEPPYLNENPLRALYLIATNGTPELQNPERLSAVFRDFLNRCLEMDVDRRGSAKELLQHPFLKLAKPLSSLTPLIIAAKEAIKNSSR
row,Variant,effect of a mutation on the interaction
1,Y87C,with no effect

# Variants of: B1
# Conditions: with prkn_human PRKN
row,Variant,effect of a mutation on the interaction
1,Y87C,with no effect

# Variants of: B1
# Conditions: with pb1_human PBRM1, Q86U86
row,Variant,effect of a mutation on the interaction
1,Y87C,with no effect

# Variants of: B1
# Conditions: with pcbp1_human PCBP1, Q15365
# Chain of pcbp1_human PCBP1, Q15365 (Q15365 whole entry): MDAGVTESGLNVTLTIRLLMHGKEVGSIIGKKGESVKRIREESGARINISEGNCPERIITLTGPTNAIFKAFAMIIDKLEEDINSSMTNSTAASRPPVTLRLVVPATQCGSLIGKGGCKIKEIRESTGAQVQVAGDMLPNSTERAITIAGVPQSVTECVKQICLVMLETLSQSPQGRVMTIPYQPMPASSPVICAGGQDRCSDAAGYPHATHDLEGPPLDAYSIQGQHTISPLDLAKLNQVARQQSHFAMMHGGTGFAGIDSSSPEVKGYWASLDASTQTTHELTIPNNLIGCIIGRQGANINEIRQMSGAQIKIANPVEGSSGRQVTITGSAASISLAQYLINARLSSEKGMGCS
row,Variant,effect of a mutation on the interaction
1,Y87C,with no effect

# Variants of: B1
# Conditions: with pdcd1_human PDCD1, Q15116
row,Variant,effect of a mutation on the interaction
1,Y87C,with no effect

# Variants of: B1
# Conditions: with pgfrb_human PDGFRB
row,Variant,effect of a mutation on the interaction
1,Y87C,with no effect

# Variants of: B1
# Conditions: with pdk1_human PDK1, Q15118
row,Variant,effect of a mutation on the interaction
1,Y87C,with no effect

# Variants of: B1
# Conditions: with PIK3C2B
row,Variant,effect of a mutation on the interaction
1,Y87C,with no effect

# Variants of: B1
# Conditions: with pk3cb_human PIK3CB
row,Variant,effect of a mutation on the interaction
1,Y87C,with no effect

# Variants of: B1
# Conditions: with pk3cg_human PIK3CG
row,Variant,effect of a mutation on the interaction
1,Y87C,with no effect

# Variants of: B1
# Conditions: with p85b_human PIK3R2, O00459
# Chain of p85b_human PIK3R2, O00459 (O00459 whole entry): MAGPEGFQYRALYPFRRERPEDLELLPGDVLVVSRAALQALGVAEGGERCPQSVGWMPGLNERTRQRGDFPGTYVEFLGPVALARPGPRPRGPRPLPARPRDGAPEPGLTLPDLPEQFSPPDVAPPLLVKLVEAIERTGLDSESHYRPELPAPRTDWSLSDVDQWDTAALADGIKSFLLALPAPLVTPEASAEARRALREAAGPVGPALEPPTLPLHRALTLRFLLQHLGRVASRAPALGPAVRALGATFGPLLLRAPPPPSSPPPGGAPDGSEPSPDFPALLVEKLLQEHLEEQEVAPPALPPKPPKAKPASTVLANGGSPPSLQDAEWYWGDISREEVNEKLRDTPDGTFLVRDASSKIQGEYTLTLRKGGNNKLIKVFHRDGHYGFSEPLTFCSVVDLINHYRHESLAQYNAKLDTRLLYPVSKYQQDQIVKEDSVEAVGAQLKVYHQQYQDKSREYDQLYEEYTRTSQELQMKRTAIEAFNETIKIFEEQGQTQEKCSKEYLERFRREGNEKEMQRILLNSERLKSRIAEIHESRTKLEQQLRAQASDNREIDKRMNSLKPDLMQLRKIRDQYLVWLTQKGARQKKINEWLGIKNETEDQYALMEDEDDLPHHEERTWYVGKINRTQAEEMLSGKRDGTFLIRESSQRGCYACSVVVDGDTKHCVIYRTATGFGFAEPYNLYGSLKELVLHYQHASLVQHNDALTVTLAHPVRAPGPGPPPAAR
row,Variant,effect of a mutation on the interaction
1,Y87C,with no effect

# Variants of: B1
# Conditions: with dpod1_human POLD1, P28340
row,Variant,effect of a mutation on the interaction
1,Y87C,with no effect

# Variants of: B1
# Conditions: with dpoe1_human POLE
row,Variant,effect of a mutation on the interaction
1,Y87C,with no effect

# Variants of: B1
# Conditions: with ppard_human PPARD
row,Variant,effect of a mutation on the interaction
1,Y87C,with no effect

# Variants of: B1
# Conditions: with prdm1_human PRDM1, O75626
row,Variant,effect of a mutation on the interaction
1,Y87C,with no effect

# Variants of: B1
# Conditions: with prex2_human PREX2, Q70Z35
row,Variant,effect of a mutation on the interaction
1,Y87C,with no effect

# Variants of: B1
# Conditions: with aapk2_human PRKAA2, P54646
row,Variant,effect of a mutation on the interaction
1,Y87C,with no effect

# Variants of: B1
# Conditions: with prss8_human PRSS8, Q16651
row,Variant,effect of a mutation on the interaction
1,Y87C,with no effect

# Variants of: B1
# Conditions: with ptk6_human PTK6, Q13882
row,Variant,effect of a mutation on the interaction
1,Y87C,with no effect

# Variants of: B1
# Conditions: with tf65_human RELA
row,Variant,effect of a mutation on the interaction
1,Y87C,with no effect

# Variants of: B1
# Conditions: with rictr_human RICTOR
row,Variant,effect of a mutation on the interaction
1,Y87C,with no effect

# Variants of: B1
# Conditions: with rnf43_human RNF43, Q68DV7
row,Variant,effect of a mutation on the interaction
1,Y87C,with no effect

# Variants of: B1
# Conditions: with ros1_human ROS1, P08922
row,Variant,effect of a mutation on the interaction
1,Y87C,with no effect

# Variants of: B1
# Conditions: with rl11_human RPL11, P62913
row,Variant,effect of a mutation on the interaction
1,Y87C,with no effect

# Variants of: B1
# Conditions: with rl5_human RPL5, P46777
row,Variant,effect of a mutation on the interaction
1,Y87C,with no effect

# Variants of: B1
# Conditions: with rs15_human RPS15, P62841
row,Variant,effect of a mutation on the interaction
1,Y87C,with no effect

# Variants of: B1
# Conditions: with rs2_human RPS2, P15880
row,Variant,effect of a mutation on the interaction
1,Y87C,with no effect

# Variants of: B1
# Conditions: with rptor_human RPTOR
row,Variant,effect of a mutation on the interaction
1,Y87C,with no effect

# Variants of: B1
# Conditions: with rxra_human RXRA
row,Variant,effect of a mutation on the interaction
1,Y87C,with no effect

# Variants of: B1
# Conditions: with sdha_human SDHA
row,Variant,effect of a mutation on the interaction
1,Y87C,with no effect

# Variants of: B1
# Conditions: with setbp_human SETBP1, Q9Y6X0
row,Variant,effect of a mutation on the interaction
1,Y87C,with no effect

# Variants of: B1
# Conditions: with setb1_human SETDB1, Q15047
row,Variant,effect of a mutation on the interaction
1,Y87C,with no effect

# Variants of: B1
# Conditions: with skp2_human SKP2, Q13309
row,Variant,effect of a mutation on the interaction
1,Y87C,with no effect

# Variants of: B1
# Conditions: with smad1_human SMAD1, Q15797
row,Variant,effect of a mutation on the interaction
1,Y87C,with no effect

# Variants of: B1
# Conditions: with smca4_human SMARCA4, P51532
row,Variant,effect of a mutation on the interaction
1,Y87C,with no effect

# Variants of: B1
# Conditions: with snf5_human SMARCB1, Q12824
row,Variant,effect of a mutation on the interaction
1,Y87C,with no effect

# Variants of: B1
# Conditions: with smo_human SMO
row,Variant,effect of a mutation on the interaction
1,Y87C,with no effect

# Variants of: B1
# Conditions: with smuf1_human SMURF1, Q9HCE7
row,Variant,effect of a mutation on the interaction
1,Y87C,with no effect

# Variants of: B1
# Conditions: with socs1_human SOCS1, O15524
row,Variant,effect of a mutation on the interaction
1,Y87C,with no effect

# Variants of: B1
# Conditions: with sox10_human SOX10, P56693
row,Variant,effect of a mutation on the interaction
1,Y87C,with no effect

# Variants of: B1
# Conditions: with sox2_human SOX2, P48431
# Chain of sox2_human SOX2, P48431 (P48431 whole entry): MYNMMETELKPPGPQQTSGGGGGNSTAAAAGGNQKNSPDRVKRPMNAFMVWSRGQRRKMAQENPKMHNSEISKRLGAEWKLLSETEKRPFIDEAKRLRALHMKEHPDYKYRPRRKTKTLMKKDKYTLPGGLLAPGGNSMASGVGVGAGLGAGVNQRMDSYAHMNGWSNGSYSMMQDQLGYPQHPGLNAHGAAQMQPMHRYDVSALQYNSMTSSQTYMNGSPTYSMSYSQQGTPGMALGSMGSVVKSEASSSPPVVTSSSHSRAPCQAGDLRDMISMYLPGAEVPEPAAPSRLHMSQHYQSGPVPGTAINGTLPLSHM
row,Variant,effect of a mutation on the interaction
1,Y87C,with no effect

# Variants of: B1
# Conditions: with src_human SRC
row,Variant,effect of a mutation on the interaction
1,Y87C,with no effect

# Variants of: B1
# Conditions: with whr1_human WHR1, P49842
row,Variant,effect of a mutation on the interaction
1,Y87C,with no effect

# Variants of: B1
# Conditions: with stk38_human STK38, Q15208
# Chain of stk38_human STK38, Q15208 (Q15208 whole entry, looked up): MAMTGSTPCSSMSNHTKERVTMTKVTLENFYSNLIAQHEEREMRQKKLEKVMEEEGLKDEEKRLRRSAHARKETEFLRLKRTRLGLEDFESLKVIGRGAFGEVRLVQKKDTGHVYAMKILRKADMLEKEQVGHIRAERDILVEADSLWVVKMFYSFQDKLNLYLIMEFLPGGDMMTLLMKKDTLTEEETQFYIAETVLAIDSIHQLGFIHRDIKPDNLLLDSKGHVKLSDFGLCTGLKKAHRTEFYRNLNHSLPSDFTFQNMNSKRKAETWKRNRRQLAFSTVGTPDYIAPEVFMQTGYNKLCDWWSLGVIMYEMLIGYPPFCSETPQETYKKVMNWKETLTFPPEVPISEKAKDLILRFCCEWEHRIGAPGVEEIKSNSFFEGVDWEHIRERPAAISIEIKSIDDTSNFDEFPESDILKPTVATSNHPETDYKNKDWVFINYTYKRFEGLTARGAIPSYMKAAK
row,Variant,effect of a mutation on the interaction
1,Y87C,with no effect

# Variants of: B1
# Conditions: with eloc_human ELOC
row,Variant,effect of a mutation on the interaction
1,Y87C,with no effect

# Variants of: B1
# Conditions: with tfe2_human TCF3, P15923
# Chain of tfe2_human TCF3, P15923 (P15923 whole entry): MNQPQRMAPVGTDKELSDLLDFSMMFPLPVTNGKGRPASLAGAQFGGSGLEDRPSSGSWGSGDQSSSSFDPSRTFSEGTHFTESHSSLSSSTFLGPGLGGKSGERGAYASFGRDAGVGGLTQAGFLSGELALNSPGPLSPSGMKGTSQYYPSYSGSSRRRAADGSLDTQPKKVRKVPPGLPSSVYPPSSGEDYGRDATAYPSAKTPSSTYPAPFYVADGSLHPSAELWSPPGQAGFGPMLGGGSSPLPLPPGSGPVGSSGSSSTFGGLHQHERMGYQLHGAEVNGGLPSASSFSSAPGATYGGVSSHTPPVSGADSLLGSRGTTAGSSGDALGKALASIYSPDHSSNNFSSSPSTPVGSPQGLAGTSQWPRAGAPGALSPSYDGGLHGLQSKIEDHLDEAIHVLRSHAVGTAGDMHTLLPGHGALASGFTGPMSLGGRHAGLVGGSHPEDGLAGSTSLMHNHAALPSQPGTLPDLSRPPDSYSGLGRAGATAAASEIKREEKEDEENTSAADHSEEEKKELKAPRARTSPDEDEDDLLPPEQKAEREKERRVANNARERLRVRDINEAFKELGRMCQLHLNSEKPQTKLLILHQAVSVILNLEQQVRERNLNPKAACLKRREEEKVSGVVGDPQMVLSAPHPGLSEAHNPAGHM
row,Variant,effect of a mutation on the interaction
1,Y87C,with no effect

# Variants of: B1
# Conditions: with tead1_human TEAD1, P28347
# Chain of tead1_human TEAD1, P28347 (P28347 whole entry): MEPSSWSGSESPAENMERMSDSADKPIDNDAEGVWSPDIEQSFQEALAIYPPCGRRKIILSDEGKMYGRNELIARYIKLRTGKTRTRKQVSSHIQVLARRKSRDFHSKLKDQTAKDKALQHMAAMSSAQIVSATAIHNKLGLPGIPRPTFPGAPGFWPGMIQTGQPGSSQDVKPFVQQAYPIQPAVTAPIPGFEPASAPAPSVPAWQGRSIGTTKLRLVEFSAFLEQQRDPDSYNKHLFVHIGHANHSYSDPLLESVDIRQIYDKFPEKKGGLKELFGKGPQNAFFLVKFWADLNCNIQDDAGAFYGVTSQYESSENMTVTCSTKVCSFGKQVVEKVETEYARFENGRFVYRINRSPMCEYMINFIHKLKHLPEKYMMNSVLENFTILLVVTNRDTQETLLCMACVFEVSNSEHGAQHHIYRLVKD
row,Variant,effect of a mutation on the interaction
1,Y87C,with no effect

# Variants of: B1
# Conditions: with tead3_human TEAD3, Q99594
row,Variant,effect of a mutation on the interaction
1,Y87C,with no effect

# Variants of: B1
# Conditions: with tead4_human TEAD4, Q15561
# Chain of tead4_human TEAD4, Q15561 (Q15561 whole entry): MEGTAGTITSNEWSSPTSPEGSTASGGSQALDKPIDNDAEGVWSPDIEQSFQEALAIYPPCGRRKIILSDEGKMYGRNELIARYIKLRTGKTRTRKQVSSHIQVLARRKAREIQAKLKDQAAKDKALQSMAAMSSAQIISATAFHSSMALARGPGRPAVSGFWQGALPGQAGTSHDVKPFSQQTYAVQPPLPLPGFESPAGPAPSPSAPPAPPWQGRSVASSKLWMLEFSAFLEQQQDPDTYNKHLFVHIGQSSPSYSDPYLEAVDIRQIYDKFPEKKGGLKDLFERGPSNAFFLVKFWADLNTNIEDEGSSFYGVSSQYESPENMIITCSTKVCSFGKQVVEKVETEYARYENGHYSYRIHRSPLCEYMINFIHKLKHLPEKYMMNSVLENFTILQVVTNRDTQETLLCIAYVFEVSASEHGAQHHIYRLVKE
row,Variant,effect of a mutation on the interaction
1,Y87C,with no effect

# Variants of: B1
# Conditions: with tet2_human TET2, Q6N021
row,Variant,effect of a mutation on the interaction
1,Y87C,with no effect

# Variants of: B1
# Conditions: with tgfr2_human TGFBR2, P37173
row,Variant,effect of a mutation on the interaction
1,Y87C,with no effect

# Variants of: B1
# Conditions: with tnr14_human TNFRSF14, Q92956
row,Variant,effect of a mutation on the interaction
1,Y87C,with no effect

# Variants of: B1
# Conditions: with tsc2_human TSC2, P49815
row,Variant,effect of a mutation on the interaction
1,Y87C,with no effect

# Variants of: B1
# Conditions: with tshr_human TSHR
row,Variant,effect of a mutation on the interaction
1,Y87C,with no effect

# Variants of: B1
# Conditions: with vegfa_human VEGFA
row,Variant,effect of a mutation on the interaction
1,Y87C,with no effect

# Variants of: B1
# Conditions: with vhl_human VHL
row,Variant,effect of a mutation on the interaction
1,Y87C,with no effect

# Variants of: B1
# Conditions: with wee1_human WEE1, P30291
row,Variant,effect of a mutation on the interaction
1,Y87C,with no effect

# Variants of: B1
# Conditions: with wwtr1_human WWTR1, Q9GZV5
row,Variant,effect of a mutation on the interaction
1,Y87C,with no effect

# Variants of: B1
# Conditions: with xpo1_human XPO1, O14980
# Chain of xpo1_human XPO1, O14980 (O14980 whole entry): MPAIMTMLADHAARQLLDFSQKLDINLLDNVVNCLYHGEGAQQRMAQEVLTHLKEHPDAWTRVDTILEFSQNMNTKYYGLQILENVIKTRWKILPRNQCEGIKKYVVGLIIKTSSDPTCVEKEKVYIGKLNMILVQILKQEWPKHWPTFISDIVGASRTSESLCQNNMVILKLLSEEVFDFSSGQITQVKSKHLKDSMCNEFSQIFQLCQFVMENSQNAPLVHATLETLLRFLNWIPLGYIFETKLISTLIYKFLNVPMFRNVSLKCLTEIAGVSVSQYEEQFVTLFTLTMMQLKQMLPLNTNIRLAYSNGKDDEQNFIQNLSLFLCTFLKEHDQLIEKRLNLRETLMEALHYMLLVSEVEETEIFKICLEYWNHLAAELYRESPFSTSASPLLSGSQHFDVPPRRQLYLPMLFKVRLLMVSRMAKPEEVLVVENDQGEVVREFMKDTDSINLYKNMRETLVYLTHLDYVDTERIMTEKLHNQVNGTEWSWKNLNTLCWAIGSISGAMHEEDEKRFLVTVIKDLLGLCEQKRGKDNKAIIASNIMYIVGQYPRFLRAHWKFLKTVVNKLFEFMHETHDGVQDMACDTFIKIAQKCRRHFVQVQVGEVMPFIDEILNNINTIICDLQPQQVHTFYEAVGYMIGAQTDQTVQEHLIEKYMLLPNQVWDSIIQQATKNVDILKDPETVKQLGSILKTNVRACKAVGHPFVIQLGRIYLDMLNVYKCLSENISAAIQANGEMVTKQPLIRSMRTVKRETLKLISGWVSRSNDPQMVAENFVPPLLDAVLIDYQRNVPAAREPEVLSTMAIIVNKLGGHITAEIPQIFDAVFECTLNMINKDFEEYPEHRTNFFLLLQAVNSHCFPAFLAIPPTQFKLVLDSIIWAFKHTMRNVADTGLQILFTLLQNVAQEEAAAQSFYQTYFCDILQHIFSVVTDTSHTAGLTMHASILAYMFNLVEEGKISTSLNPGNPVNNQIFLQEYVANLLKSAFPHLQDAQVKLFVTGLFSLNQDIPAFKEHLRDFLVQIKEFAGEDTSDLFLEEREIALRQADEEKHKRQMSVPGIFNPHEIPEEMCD
row,Variant,effect of a mutation on the interaction
1,Y87C,with no effect

# Variants of: B1
# Conditions: with il7ra_human IL7R
row,Variant,effect of a mutation on the interaction
1,Y87C,increasing interaction strength
